In paper PMC8141644, “Design of a Trispecific Checkpoint Inhibitor and Natural Killer Cell Engager Based on a 2 + 1 Common Light Chain Antibody Architecture” (Frontiers in Immunology, 2021):

What was measured:
EGFR-ECD [1] = target: T1, EGFR-ECD (UniProt P00533); assay: BLI; sterile filtered Expi293F cell culture supernatants of the light chain variants paired with the parental FEB4 heavy chain; details: one partner purified
T1 construct: epidermal growth factor receptor (EGFR), extracellular domain (EGFR-ECD); With anti-human-Fc (AHC) sensors it was probably the His-tagged one; also called epidermal growth factor receptor extracellular domain

PD-L1-ECD = target: T2, PD-L1-ECD (Homo sapiens (; durvalumab …, UniProt Q9NZQ7); assay: BLI; affinity determination as previously described (54); purified antibodies (loaded onto AHC biosensors, as told for the anti-CD16a variants), antigen in solution; Octet RED96, 30 °C, 1000 rpm; details: both partners purified
T2 construct: also called His-tagged PD-L1; source: bought: R&D systems (His-tagged PD-L1)

EGFR-ECD [2] = target: T1, EGFR-ECD; assay: as above; details: both partners purified

T2 sequence (Q9NZQ7 19-238): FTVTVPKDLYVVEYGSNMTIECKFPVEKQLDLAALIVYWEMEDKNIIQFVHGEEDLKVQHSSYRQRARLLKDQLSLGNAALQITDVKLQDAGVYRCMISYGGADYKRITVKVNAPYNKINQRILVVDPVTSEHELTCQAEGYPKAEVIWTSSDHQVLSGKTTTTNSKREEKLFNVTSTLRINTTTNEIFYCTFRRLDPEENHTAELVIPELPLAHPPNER

B1: FEB4 (antibody, V domains shown)
VH: AVTLDESGGGLQTPGGALSLVCKASGFTFSSHGMLWVRQAPGKGLEFVAGISTDGSSTSYGAPVKGRATISRDNGQSTVRLQLNNLRAEDTGTYYCAKDAYRCRNCAEDIDAWGHGTEVIVSS
VL: ALTQPSSVSANPGETVKITCSGGYSDDGSYYYYGWFQQKSPGSAPVTVIYDNTNRPSNIPSRFSGSTSGSTSTLTITGVRAEDEAVYYCGSIDTGYAGIFGAGTTLTVL
notes: IgG1 constant region (CH1, hinge, Fc); standard IgG1 format; also called parental FEB4 mAb; parental antibody; copies: 2 + 2
Question: Does B1 bind (EGFR-ECD [1])?
Answer: Result: binds

B2: ICI2 (antibody, V domains shown)
VH: AVTLDESGGGLQTPGGALSLVCKASGFDFSSYDMAWVRQAPGKGLEWVAGIKSNGPWTNYGAAVKGRATISRDNGQSTVRLQLNNLRAEDTAIYYCAKPGAGYVGWDAAGTIDSWGHGTEVIVSS
VL: ALTQPSSVSANPGETVKITCSGGGYDGSYYYGWYQQKSPGSAPVTVIYDNTNRPSNIPSRFSGSLSGSTNTLTITGVQAEDEAVYFCGGYDRSGGIFGGGTTLTVL
notes: VH of ICI2 (chicken-derived); IgG1 constant region (CH1, hinge, Fc) with the LALA mutation; as the light chain of m10 (dFEB1-VL common light chain); IgG1 LALA chimeric antibody; source: Expi293F, purified (Protein A chromatography); copies: 2 + 2
Question: How did the Kd (PD-L1-ECD) turn out when B2 was run?
Answer: Its Kd is 3 nM.

B3: dFEB4-1 (antibody, V domains shown)
VH: AVTLDESGGGLQTPGGALSLVCKASGFTFSSHGMLWVRQAPGKGLEFVAGISTDGSSTSYGAPVKGRATISRDNGQSTVRLQLNNLRAEDTGTYYCAKDAYRCRNCAEDIDAWGHGTEVIVSS
VL: ALTQPSSVSANPGETVKITCSGGGYDGSYYYGWYQQKSPGSAPVTVIYDNTNRPSNIPSRFSGSLSGSTNTLTITGVQAEDEAVYFCGGYDRSGGIFGGGTTLTVL
notes: as the heavy chain of m8 (parental FEB4 heavy chain); dFEB1-VL, chicken VL from the light chain shuffling; human lambda CL; IgG; also called parental FEB4 heavy chain with dFEB1-VL; source: Expi293F, co-transfected; sterile filtered culture supernatant, and purified (Protein A chromatography); copies: 2 + 2
Question: How did the Kd (EGFR-ECD [2]) turn out when B3 was run?
Answer: The Kd was 6.4 nM.

Question: And the “fold improvement in KD against the parental FEB4” value (EGFR-ECD [2])?
Answer: The value was 5 fold.
